Measured values taken from US20200353049A1.
Several values for one entry are separate records, joined by “and”; a condition that tells them apart may be missing. Equal entries are not always repeated.

Legend:
[1] = target: IL-22R1a extracellular domain (ECD) (UniProt Q8N6P7); assay: binding ELISA on plate-coated IL-22R1a ECD, relative to Reference Standard (100%); T=0
[2] = target: IL-22R1a extracellular domain (ECD) (UniProt Q8N6P7); assay: binding ELISA on plate-coated IL-22R1a ECD, relative to Reference Standard (100%); stored 5 C, 1 month
[3] = target: IL-22R1a extracellular domain (ECD) (UniProt Q8N6P7); assay: potency assay (binding ELISA on plate-coated IL-22R1a ECD), relative to reference standard (100%); T=0
[4] = target: IL-22R1a extracellular domain (ECD) (UniProt Q8N6P7); assay: binding ELISA on plate-coated IL-22R1a ECD, relative to Reference Standard (100%); stored 5 C, 2 months
[5] = target: IL-22R1a extracellular domain (ECD) (UniProt Q8N6P7); assay: binding ELISA on plate-coated IL-22R1a ECD, relative to Reference Standard (100%); stored 5 C, 6 months
[6] = target: IL-22R1a extracellular domain (ECD) (UniProt Q8N6P7); assay: binding ELISA on plate-coated IL-22R1a ECD, relative to Reference Standard (100%); stored -20 C, 3 months
[7] = target: IL-22R1a extracellular domain (ECD) (UniProt Q8N6P7); assay: binding ELISA on plate-coated IL-22R1a ECD, relative to Reference Standard (100%); stored -20 C, 6 months
[8] = target: IL-22R1a extracellular domain (ECD) (UniProt Q8N6P7); assay: binding ELISA on plate-coated IL-22R1a ECD, relative to Reference Standard (100%); stored -20 C, 12 months
[9] = target: IL-22R1a extracellular domain (ECD) (UniProt Q8N6P7); assay: binding ELISA on plate-coated IL-22R1a ECD, relative to Reference Standard (100%); stored -20 C, 18 months
[10] = target: IL-22R1a extracellular domain (ECD) (UniProt Q8N6P7); assay: binding ELISA on plate-coated IL-22R1a ECD, relative to Reference Standard (100%); stored -20 C, 36 months
[11] = target: IL-22R1a extracellular domain (ECD) (UniProt Q8N6P7); assay: binding ELISA on plate-coated IL-22R1a ECD, relative to Reference Standard (100%); stored -20 C, 48 months
[12] = target: IL-22R1a extracellular domain (ECD) (UniProt Q8N6P7); assay: potency assay (binding ELISA on plate-coated IL-22R1a ECD), relative to reference standard; 40 C stress, day 10
[13] = target: IL-22R1a extracellular domain (ECD) (UniProt Q8N6P7); assay: potency assay (binding ELISA on plate-coated IL-22R1a ECD), relative to reference standard (100%); stored 25 C, 1 month
[14] = target: IL-22R1a extracellular domain (ECD) (UniProt Q8N6P7); assay: potency assay (binding ELISA on plate-coated IL-22R1a ECD), relative to reference standard (100%); stored 5 C, 6 months
[15] = target: IL-22R1a extracellular domain (ECD) (UniProt Q8N6P7); assay: potency assay (binding ELISA on plate-coated IL-22R1a ECD), relative to reference standard (100%); stored 5 C, 3 months
[16] = target: IL-22R1a extracellular domain (ECD) (UniProt Q8N6P7); assay: potency assay (binding ELISA on plate-coated IL-22R1a ECD), relative to reference standard (100%); stored 25 C, 6 months
[17] = target: IL-22R1a extracellular domain (ECD) (UniProt Q8N6P7); assay: potency assay (binding ELISA on plate-coated IL-22R1a ECD), relative to reference standard (100%); stored 5 C, 18 months
[18] = target: IL-22R1a extracellular domain (ECD) (UniProt Q8N6P7); assay: potency assay (binding ELISA on plate-coated IL-22R1a ECD), relative to reference standard (100%); stored 5 C, 30 months
[19] = target: IL-22R1a extracellular domain (ECD) (UniProt Q8N6P7); assay: potency assay (binding ELISA on plate-coated IL-22R1a ECD), relative to reference standard (100%); stored 5 C, 36 months
[20] = target: IL-22R1a extracellular domain (ECD) (UniProt Q8N6P7); assay: potency assay (binding ELISA on plate-coated IL-22R1a ECD), relative to reference standard (100%); stored 25 C, 3 months
[21] = target: IL-22R1a extracellular domain (ECD) (UniProt Q8N6P7); assay: potency assay (binding ELISA on plate-coated IL-22R1a ECD), relative to reference standard (100%); stored 25 C, 6 months; remark: listed apart in the source
[22] = target: IL-22R1a extracellular domain (ECD) (UniProt Q8N6P7); assay: potency assay (binding ELISA on plate-coated IL-22R1a ECD), relative to reference standard (100%); stored 5 C, 18 months; remark: listed apart in the source
[23] = target: IL-22R1a extracellular domain (ECD) (UniProt Q8N6P7); assay: potency assay (binding ELISA on plate-coated IL-22R1a ECD), relative to reference standard (100%); stored 5 C, 24 months
[24] = target: IL-22R1a extracellular domain (ECD) (UniProt Q8N6P7); assay: potency assay (binding ELISA on plate-coated IL-22R1a ECD), relative to reference standard (100%); stored 5 C, 48 months
[25] = target: IL-22R1a extracellular domain (ECD) (UniProt Q8N6P7); assay: potency assay (binding ELISA on plate-coated IL-22R1a ECD), relative to reference standard (100%); stored 5 C, 12 months (time printed as 180/12)
[26] = target: IL-22R1a extracellular domain (ECD) (UniProt Q8N6P7); assay: potency assay (binding ELISA on plate-coated IL-22R1a ECD); change after 2 weeks at 40 C; this end matches Clinical Batch 3 in Table 26 (85 to 57)
[27] = target: IL-22R1a extracellular domain (ECD) (UniProt Q8N6P7); assay: potency assay (binding ELISA on plate-coated IL-22R1a ECD); change after 2 weeks at 40 C; this end matches Reference Standard Batch in Table 26 (104 to 71)

Chain of UniProt Q8N6P7 (Q8N6P7 16-228 limits assumed): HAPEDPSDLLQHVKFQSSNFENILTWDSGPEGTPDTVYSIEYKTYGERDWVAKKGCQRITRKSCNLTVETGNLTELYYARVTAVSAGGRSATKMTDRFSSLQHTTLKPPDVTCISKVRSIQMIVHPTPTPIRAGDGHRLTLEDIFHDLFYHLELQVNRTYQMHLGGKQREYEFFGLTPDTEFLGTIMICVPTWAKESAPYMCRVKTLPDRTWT

With IL-22 Fc fusion protein the Potency by Binding Assay (% relative potency) (% relative potency) [1] was 108, the Potency by Binding Assay (% relative potency) (% relative potency) [2] was 73 and the Potency (% relative potency) (% relative potency) [3] was 73. It also gave a Potency by Binding Assay (% relative potency) (% relative potency) [4] of 75, a Potency by Binding Assay (% relative potency) (% relative potency) [5] of 71 and a Potency by Binding Assay (% relative potency) (% relative potency) [6] of 104. The Potency by Binding Assay (% relative potency) (% relative potency) [7] was 112, the Potency by Binding Assay (% relative potency) (% relative potency) [8] was 69 and the Potency by Binding Assay (% relative potency) (% relative potency) [9] was 70. For the same substance, the Potency by Binding Assay (% relative potency) (% relative potency) [10] was 71, the Potency by Binding Assay (% relative potency) (% relative potency) [11] was 72 and the Potency (% relative potency) (% relative potency) [12] was 84 and 65. It also gave a Potency (% relative potency) (% relative potency) [13] of 68, a Potency (% relative potency) (% relative potency) [14] of 64 and a Potency (% relative potency) (% relative potency) [15] of 104. The Potency (% relative potency) (% relative potency) [16] was 47, the Potency (% relative potency) (% relative potency) [17] was 64 and the Potency (% relative potency) (% relative potency) [18] was 65. For the same substance, the Potency (% relative potency) (% relative potency) [19] was 67, the Potency (% relative potency) (% relative potency) [20] was 95 and the Potency (% relative potency) (% relative potency) [21] was 72. It also gave a Potency (% relative potency) (% relative potency) [22] of 93, a Potency (% relative potency) (% relative potency) [23] of 83 and a Potency (% relative potency) (% relative potency) [24] of 91. It also gave a Potency (% relative potency) (% relative potency) [25] of 86, a decrease in % relative potency (% relative potency) [26] of 28 and a decrease in % relative potency (% relative potency) [27] of 33.
